According to article PMC8801479:

Assays:
the GF and c-AMH = test: ELISA; c-AMH or GF captured on mAb-C1; various concentrations of AMHR2-Fc/Fc in solution; bound AMHR2-Fc/Fc detected with antihuman-Fc Ab conjugated to HRP; quadratic fit
[1] = biological target: activin A growth factor growth factor domain (Homo sapiens) (UniProt P08476); settings: cited from earlier work
[2] = biological target: AMHR2-Fc/Fc, heterodimer of one AMHR2-Fc chain (extracellular domain of human AMHR2 fused to human IgG1 Fc) disulfide bonded to one Fc-only chain (human) (UniProt Q16671); test: ELISA; AMHR2-Fc/Fc captured on goat antihuman Fc Ab on the plate; c-AMH 0.03 to 52.83 nM; bound AMH detected with nonbiotinylated mAb-C1 or mAb-N1 and antimouse-Fc-HRP, added one by one or as a preformed complex; data fit globally to the equations of Perelson and DeLisi for ligand-induced receptor dimerization, with the quadratic equation for K_mono and Kbi; [R0] = 0.1 nM
[3] = biological target: AMHR2-Fc/Fc, heterodimer of one AMHR2-Fc chain (extracellular domain of human AMHR2 fused to human IgG1 Fc) disulfide bonded to one Fc-only chain (human) (UniProt Q16671); test: ELISA; AMHR2-Fc/Fc (0.75 ug/ml) captured on goat antihuman Fc Ab coated on the plate; c-AMH or GF serially diluted, 2 to 4 h; bound AMH detected with biotinylated mAb-C1 (GF) or mAb-N1 (prodomain) and SA-HRP; data fit to the quadratic equation for a reversible association reaction
[4] = biological target: anti-Müllerian hormone growth factor (AMH GF), the mature C-terminal domain (human) (UniProt P03971); test: ELISA; AMHR2-Fc/Fc captured on goat antihuman Fc Ab on the plate; c-AMH 0.03 to 52.83 nM; bound AMH detected with nonbiotinylated mAb-C1 or mAb-N1 and antimouse-Fc-HRP, added one by one or as a preformed complex; data fit globally to the equations of Perelson and DeLisi for ligand-induced receptor dimerization, with the quadratic equation for K_mono and Kbi; [R0] = 0.1 nM
anti-Müllerian hormone growth factor (AMH GF), the mature C-terminal domain (human), sequence (P03971 452-560): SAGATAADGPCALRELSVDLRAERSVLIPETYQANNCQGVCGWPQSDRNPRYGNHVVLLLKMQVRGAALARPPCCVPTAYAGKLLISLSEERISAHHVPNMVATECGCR

[5] = biological target: anti-Müllerian hormone growth factor (AMH GF), the mature C-terminal domain (human) (UniProt P03971); test: ELISA; c-AMH diluted to 1 ng/ml (8.8 pM) in PBS with 1% BSA and 1% goat serum, 10 days at room temperature; ELISA that detects only intact complex; Kd calculated from the fraction of intact complex

cleaved anti-Müllerian hormone (c-AMH), the noncovalent complex of the AMH prodomain with the AMH growth factor, sequence (P03971 25-451 limits assumed): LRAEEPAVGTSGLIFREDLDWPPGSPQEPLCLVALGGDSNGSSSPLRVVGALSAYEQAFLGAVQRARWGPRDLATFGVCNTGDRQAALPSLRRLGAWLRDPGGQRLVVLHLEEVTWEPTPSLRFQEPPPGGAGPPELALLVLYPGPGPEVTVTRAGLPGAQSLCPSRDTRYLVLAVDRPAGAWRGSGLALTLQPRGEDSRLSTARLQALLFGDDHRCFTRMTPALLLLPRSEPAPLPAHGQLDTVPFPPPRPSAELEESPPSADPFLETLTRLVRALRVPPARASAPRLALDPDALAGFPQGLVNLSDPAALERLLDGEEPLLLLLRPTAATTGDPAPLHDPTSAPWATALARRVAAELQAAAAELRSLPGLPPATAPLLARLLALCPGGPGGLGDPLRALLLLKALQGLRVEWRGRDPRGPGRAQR
cleaved anti-Müllerian hormone (c-AMH), the noncovalent complex of the AMH prodomain with the AMH growth factor, sequence (P03971 452-560 limits assumed): as the sequence (P03971 452-560) above
activin A growth factor growth factor domain (Homo sapiens), sequence (P08476 311-426): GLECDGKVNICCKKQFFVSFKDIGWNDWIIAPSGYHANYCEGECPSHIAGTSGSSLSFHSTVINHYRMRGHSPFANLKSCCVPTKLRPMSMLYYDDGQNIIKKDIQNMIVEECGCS
activin A prodomain prodomain, sequence (P08476 21-310): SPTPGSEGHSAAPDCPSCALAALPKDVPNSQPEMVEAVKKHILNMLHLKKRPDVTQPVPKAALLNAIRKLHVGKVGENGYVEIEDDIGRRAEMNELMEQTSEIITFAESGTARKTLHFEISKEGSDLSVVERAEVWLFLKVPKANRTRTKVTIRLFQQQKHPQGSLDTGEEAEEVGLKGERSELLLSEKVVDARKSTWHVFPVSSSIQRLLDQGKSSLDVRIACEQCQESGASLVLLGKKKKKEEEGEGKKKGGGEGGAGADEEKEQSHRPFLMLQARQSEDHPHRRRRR

AMHR2-Fc/Fc, heterodimer of one AMHR2-Fc chain (extracellular domain of human AMHR2 fused to human IgG1 Fc) disulfide bonded to one Fc-only chain (from UniProt Q16671 18-149; P01857 104-330) (Fc fusion)
Kd (the GF and c-AMH): 3 to 4 nM

activin A prodomain prodomain (from UniProt P08476)
Kd [1]: 5 nM

cleaved anti-Müllerian hormone (c-AMH), the noncovalent complex of the AMH prodomain with the AMH growth factor (from UniProt P03971 452-560)
K1 (dissociation constant of the initial monovalent binding step; fit of Figure 5C) [2]: 1.1 nM
K1 (dissociation constant of the initial monovalent binding step; fit of Figure 5D) [2]: 1.1 nM
[CT]/[R0], bound AMH without prodomain, estimate of [RLR]/[R0], at 0.03 nM c-AMH [2]: 0.031
[CT]/[R0], bound AMH without prodomain, estimate of [RLR]/[R0], at 0.05 nM c-AMH [2]: 0.067
[CT]/[R0], bound AMH without prodomain, estimate of [RLR]/[R0], at 0.10 nM c-AMH [2]: 0.091
[CT]/[R0], bound AMH without prodomain, estimate of [RLR]/[R0], at 0.21 nM c-AMH [2]: 0.147
[CT]/[R0], bound AMH without prodomain, estimate of [RLR]/[R0], at 0.41 nM c-AMH [2]: 0.206
[CT]/[R0], bound AMH without prodomain, estimate of [RLR]/[R0], at 0.83 nM c-AMH [2]: 0.284
[CT]/[R0], bound AMH without prodomain, estimate of [RLR]/[R0], at 1.65 nM c-AMH [2]: 0.285
[CT]/[R0], bound AMH without prodomain, estimate of [RLR]/[R0], at 3.30 nM c-AMH [2]: 0.22
[CT]/[R0], bound AMH without prodomain, estimate of [RLR]/[R0], at 6.60 nM c-AMH [2]: 0.199
[CT]/[R0], bound AMH without prodomain, estimate of [RLR]/[R0], at 13.21 nM c-AMH [2]: 0.145
[CT]/[R0], bound AMH without prodomain, estimate of [RLR]/[R0], at 26.41 nM c-AMH [2]: 0.094
[CT]/[R0], bound AMH without prodomain, estimate of [RLR]/[R0], at 52.83 nM c-AMH [2]: 0.086
[NCT]/[R0], intact AMH complex bound (mAb-N1), estimate of [RL]/[R0], at 0.03 nM c-AMH [2]: 0.013
[NCT]/[R0], intact AMH complex bound (mAb-N1), estimate of [RL]/[R0], at 0.05 nM c-AMH [2]: 0.021
[NCT]/[R0], intact AMH complex bound (mAb-N1), estimate of [RL]/[R0], at 0.10 nM c-AMH [2]: 0.034
[NCT]/[R0], intact AMH complex bound (mAb-N1), estimate of [RL]/[R0], at 0.21 nM c-AMH [2]: 0.056
[NCT]/[R0], intact AMH complex bound (mAb-N1), estimate of [RL]/[R0], at 0.41 nM c-AMH [2]: 0.109
[NCT]/[R0], intact AMH complex bound (mAb-N1), estimate of [RL]/[R0], at 0.83 nM c-AMH [2]: 0.178
[NCT]/[R0], intact AMH complex bound (mAb-N1), estimate of [RL]/[R0], at 1.65 nM c-AMH [2]: 0.311
[NCT]/[R0], intact AMH complex bound (mAb-N1), estimate of [RL]/[R0], at 3.30 nM c-AMH [2]: 0.487
[NCT]/[R0], intact AMH complex bound (mAb-N1), estimate of [RL]/[R0], at 6.60 nM c-AMH [2]: 0.654
[NCT]/[R0], intact AMH complex bound (mAb-N1), estimate of [RL]/[R0], at 13.21 nM c-AMH [2]: 0.794
[NCT]/[R0], intact AMH complex bound (mAb-N1), estimate of [RL]/[R0], at 26.41 nM c-AMH [2]: 0.871
[NCT]/[R0], intact AMH complex bound (mAb-N1), estimate of [RL]/[R0], at 52.83 nM c-AMH [2]: 0.941
[R0]/K2 (second, bivalent binding step; dimensionless) [2]: 6
[R0]/K2 (second, bivalent binding step; dimensionless; fit of Figure 5C) [2]: 3.7
[R0]/K2 (second, bivalent binding step; dimensionless; fit of Figure 5D) [2]: 4.9
[RL+2RLR]/[R0], fraction-receptor occupancy, at 0.03 nM c-AMH [2]: 0.103
[RL+2RLR]/[R0], fraction-receptor occupancy, at 0.05 nM c-AMH [2]: 0.163
[RL+2RLR]/[R0], fraction-receptor occupancy, at 0.10 nM c-AMH [2]: 0.254
[RL+2RLR]/[R0], fraction-receptor occupancy, at 0.21 nM c-AMH [2]: 0.386
[RL+2RLR]/[R0], fraction-receptor occupancy, at 0.41 nM c-AMH [2]: 0.538
[RL+2RLR]/[R0], fraction-receptor occupancy, at 0.83 nM c-AMH [2]: 0.654
[RL+2RLR]/[R0], fraction-receptor occupancy, at 1.65 nM c-AMH [2]: 0.789
[RL+2RLR]/[R0], fraction-receptor occupancy, at 3.30 nM c-AMH [2]: 0.834
[RL+2RLR]/[R0], fraction-receptor occupancy, at 6.60 nM c-AMH [2]: 0.917
[RL+2RLR]/[R0], fraction-receptor occupancy, at 13.21 nM c-AMH [2]: 0.951
[RL+2RLR]/[R0], fraction-receptor occupancy, at 26.41 nM c-AMH [2]: 0.989
[RL+2RLR]/[R0], fraction-receptor occupancy, at 52.83 nM c-AMH [2]: 1
[RL+RLR]/[R0], fraction-maximal AMH binding, at 0.03 nM c-AMH [2]: 0.043
[RL+RLR]/[R0], fraction-maximal AMH binding, at 0.05 nM c-AMH [2]: 0.088
[RL+RLR]/[R0], fraction-maximal AMH binding, at 0.10 nM c-AMH [2]: 0.125
[RL+RLR]/[R0], fraction-maximal AMH binding, at 0.21 nM c-AMH [2]: 0.203
[RL+RLR]/[R0], fraction-maximal AMH binding, at 0.41 nM c-AMH [2]: 0.315
[RL+RLR]/[R0], fraction-maximal AMH binding, at 0.83 nM c-AMH [2]: 0.463
[RL+RLR]/[R0], fraction-maximal AMH binding, at 1.65 nM c-AMH [2]: 0.596
[RL+RLR]/[R0], fraction-maximal AMH binding, at 3.30 nM c-AMH [2]: 0.707
[RL+RLR]/[R0], fraction-maximal AMH binding, at 6.60 nM c-AMH [2]: 0.854
[RL+RLR]/[R0], fraction-maximal AMH binding, at 13.21 nM c-AMH [2]: 0.94
[RL+RLR]/[R0], fraction-maximal AMH binding, at 26.41 nM c-AMH [2]: 0.965
[RL+RLR]/[R0], fraction-maximal AMH binding, at 52.83 nM c-AMH [2]: 1.03
Kd [3]: 0.3 nM

anti-Müllerian hormone prodomain (N-terminal prodomain of c-AMH) (domain or fragment)
KT (apparent dissociation constant of the receptor-bound AMH complex, at [R0] = 100 pM), at 0.03 nM c-AMH [4]: 7.5 pM
KT (apparent dissociation constant of the receptor-bound AMH complex, at [R0] = 100 pM), at 0.05 nM c-AMH [4]: 22.1 pM
KT (apparent dissociation constant of the receptor-bound AMH complex, at [R0] = 100 pM), at 0.10 nM c-AMH [4]: 24.3 pM
KT (apparent dissociation constant of the receptor-bound AMH complex, at [R0] = 100 pM), at 0.21 nM c-AMH [4]: 36.6 pM
KT (apparent dissociation constant of the receptor-bound AMH complex, at [R0] = 100 pM), at 0.41 nM c-AMH [4]: 38.7 pM
KT (apparent dissociation constant of the receptor-bound AMH complex, at [R0] = 100 pM), at 0.83 nM c-AMH [4]: 45.3 pM
KT (apparent dissociation constant of the receptor-bound AMH complex, at [R0] = 100 pM), at 1.65 nM c-AMH [4]: 26.2 pM
KT (apparent dissociation constant of the receptor-bound AMH complex, at [R0] = 100 pM), at 3.30 nM c-AMH [4]: 10 pM
KT (apparent dissociation constant of the receptor-bound AMH complex, at [R0] = 100 pM), at 6.60 nM c-AMH [4]: 6.1 pM
KT (apparent dissociation constant of the receptor-bound AMH complex, at [R0] = 100 pM), at 13.21 nM c-AMH [4]: 2.7 pM
KT (apparent dissociation constant of the receptor-bound AMH complex, at [R0] = 100 pM), at 26.41 nM c-AMH; taken as a measure of K mono [4]: 1 pM
KT (apparent dissociation constant of the receptor-bound AMH complex, at [R0] = 100 pM), at 52.83 nM c-AMH; taken as a measure of K mono [4]: 0.8 pM
[NCT]/[RL + RLR], fraction-intact AMH complex, at 0.03 nM c-AMH [4]: 0.29
[NCT]/[RL + RLR], fraction-intact AMH complex, at 0.05 nM c-AMH [4]: 0.234
[NCT]/[RL + RLR], fraction-intact AMH complex, at 0.10 nM c-AMH [4]: 0.271
[NCT]/[RL + RLR], fraction-intact AMH complex, at 0.21 nM c-AMH [4]: 0.276
[NCT]/[RL + RLR], fraction-intact AMH complex, at 0.41 nM c-AMH [4]: 0.347
[NCT]/[RL + RLR], fraction-intact AMH complex, at 0.83 nM c-AMH [4]: 0.386
[NCT]/[RL + RLR], fraction-intact AMH complex, at 1.65 nM c-AMH [4]: 0.521
[NCT]/[RL + RLR], fraction-intact AMH complex, at 3.30 nM c-AMH [4]: 0.688
[NCT]/[RL + RLR], fraction-intact AMH complex, at 6.60 nM c-AMH [4]: 0.767
[NCT]/[RL + RLR], fraction-intact AMH complex, at 13.21 nM c-AMH [4]: 0.845
[NCT]/[RL + RLR], fraction-intact AMH complex, at 26.41 nM c-AMH [4]: 0.903
[NCT]/[RL + RLR], fraction-intact AMH complex, at 52.83 nM c-AMH [4]: 0.917
Kd [5]: 0.0004 nM
intact complex left after 10 days at 8.8 pM, percent of samples diluted immediately before the assay [5]: 80%
